Source: US20020123091

Tested on: PRO256 polypeptide
Sequence (chain, as listed by the source): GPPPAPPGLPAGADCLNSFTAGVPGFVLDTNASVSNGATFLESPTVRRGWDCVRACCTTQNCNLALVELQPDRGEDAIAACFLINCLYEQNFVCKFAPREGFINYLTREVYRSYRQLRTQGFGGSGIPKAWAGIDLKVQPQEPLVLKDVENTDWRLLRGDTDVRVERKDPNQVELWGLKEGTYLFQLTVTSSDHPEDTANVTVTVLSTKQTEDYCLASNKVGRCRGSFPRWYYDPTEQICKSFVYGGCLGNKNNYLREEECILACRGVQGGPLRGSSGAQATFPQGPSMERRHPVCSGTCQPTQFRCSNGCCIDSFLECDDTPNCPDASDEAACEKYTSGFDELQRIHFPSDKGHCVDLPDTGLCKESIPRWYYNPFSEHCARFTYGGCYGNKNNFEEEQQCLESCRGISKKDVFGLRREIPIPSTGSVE

Chain of human kallikrein (Haematologic Technologies) (chain, as listed by the source): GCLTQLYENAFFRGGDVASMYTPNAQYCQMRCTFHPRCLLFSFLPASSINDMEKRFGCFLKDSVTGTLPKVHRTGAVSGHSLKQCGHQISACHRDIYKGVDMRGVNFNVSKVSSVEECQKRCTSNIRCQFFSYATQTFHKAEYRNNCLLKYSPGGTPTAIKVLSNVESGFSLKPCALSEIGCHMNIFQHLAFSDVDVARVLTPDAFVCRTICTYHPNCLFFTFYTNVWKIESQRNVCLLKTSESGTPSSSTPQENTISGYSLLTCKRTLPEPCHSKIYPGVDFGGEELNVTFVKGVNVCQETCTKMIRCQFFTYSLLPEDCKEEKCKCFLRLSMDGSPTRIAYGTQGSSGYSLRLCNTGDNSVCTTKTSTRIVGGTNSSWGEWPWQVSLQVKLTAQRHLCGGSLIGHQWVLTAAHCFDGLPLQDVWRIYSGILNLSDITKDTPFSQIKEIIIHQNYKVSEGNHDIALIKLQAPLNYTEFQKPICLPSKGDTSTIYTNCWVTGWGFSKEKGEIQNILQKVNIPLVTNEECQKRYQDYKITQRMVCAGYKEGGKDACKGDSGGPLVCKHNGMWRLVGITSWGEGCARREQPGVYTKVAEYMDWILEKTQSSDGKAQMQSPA

## human kallikrein (Haematologic Technologies)
  kallikrein (40 nM) conversion of ^125I-scHGF into its two chain form, SDS-PAGE/autoradiography, PRO256 at 1 µM: In the presence of PRO256, kallikrein conversion of ^125I-scHGF into its two chain form is inhibited over the 4 hour incubation period compared with the control.
